Laboratory results as given in article PMC2603577 (Journal of immunology (Baltimore, Md. : 1950), 2008).

How the values were obtained:
[1] = tested on: human microglia
[2] = tested on: human MDM
[3] = tested on: HSP70; assay: Immunoblot of MDM lysates, HSP70; format: cell-based, human; details: cytokines 10 ng/ml each, 120 hrs, vs control
[4] = tested on: HSC70; assay: Immunoblot of MDM lysates, HSC70; format: cell-based, human; details: cytokines 10 ng/ml each, 120 hrs, vs control
[5] = tested on: IDE; assay: Immunoblot of MDM lysates, IDE; format: cell-based, human; details: cytokines 10 ng/ml each, 120 hrs, vs control
[6] = tested on: human MDM; assay: Pulse-chase of fibrillar 125I-Aβ in MDM chased with recombinant cytokines; format: cell-based; details: cytokines at final 10 ng/ml, chase 120 hrs, vs control MDM
[7] = tested on: human microglia; assay: Pulse-chase of fibrillar 125I-Aβ in microglia chased with recombinant cytokines; format: cell-based; details: cytokines at final 10 ng/ml, chase 120 hrs, vs control

## Fibrillar Aβ40: iodinated synthetic Aβ40 peptide aggregated with stirring at 37°C for 3 days, precipitated fraction
[1]
  extracellular TCA-insoluble fraction at saturation (% total count): ~30%
  extracellular TCA-soluble fraction at saturation (% total count): approximately 10%
  intracellular retention at saturation (% total count): approximately 60%
[2]
  extracellular TCA-soluble fraction (degraded form) at saturation (% total count): ~40%
  intracellular retention at saturation (% total count): approximately 50%

## Fibrillar Aβ42: iodinated synthetic Aβ42 peptide aggregated with stirring at 37°C for 3 days, precipitated fraction
[1]
  intracellular retention at saturation (% total count): ~42%
[2]
  extracellular TCA-soluble fraction (degraded form) at saturation (% total count): ~40%

## IFN-γ: recombinant cytokine interferon-γ
[3]
  reduction of HSP70 expression (band intensity / β-actin): no effect
[4]
  reduction of HSC70 expression (band intensity / β-actin): no effect
[5]
  reduction of IDE expression (band intensity / β-actin): no effect

## IL-4: recombinant cytokine interleukin-4
[6]
  effect on intracellular retention of fibrillar Aβ40: significantly reduced
  effect on intracellular retention of fibrillar Aβ42: suppressed

## IL-10: recombinant cytokine
[6]
  effect on intracellular retention of fibrillar Aβ40: significantly reduced
  effect on intracellular retention of fibrillar Aβ42: suppressed

## IL-13: recombinant cytokine
[6]
  effect on intracellular retention of fibrillar Aβ40: no effect

## Oligomeric Aβ40: 125I-Aβ40 incubated in PBS at 4°C for 24hs, supernatant fraction
[2]
  extracellular TCA-soluble fraction (degraded form) at saturation (% total count): ~75%

## Oligomeric Aβ42: 125I-Aβ42 incubated in PBS at 4°C for 24hs, supernatant fraction
[2]
  extracellular TCA-soluble fraction (degraded form) at saturation (% total count): ~40%

## TGF-β1: recombinant cytokine transforming growth factor-β1
[6]
  effect on intracellular retention of fibrillar Aβ40: significantly reduced

## TNF-α
[3]
  reduction of HSP70 expression (band intensity / β-actin): no effect
[4]
  reduction of HSC70 expression (band intensity / β-actin): no effect
[5]
  reduction of IDE expression (band intensity / β-actin): no effect

B1: IFN-γ: recombinant cytokine interferon-γ (protein, UniProt P01579 24-161, looked up)
Interferon gamma: QDPYVKEAENLKKYFNAGHSDVADNGTLFLGILKNWKEESDRKIMQSQIVSFYFKLFKNFKDDQSIQKSVETIKEDMNVKFFNSNKKKRDDFEKLTNYSVTDLNVQRKAIHELIQVMAELSPAAKTGKRKRSQMLFRG
[6]
  effect on intracellular retention of fibrillar Aβ40: significantly enhanced
  effect on intracellular retention of fibrillar Aβ42: significantly enhanced
[7]
  effect on intracellular retention of fibrillar Aβ40: significantly enhanced
  effect on intracellular retention of fibrillar Aβ42: enhanced
